Literature values in patent publication US11376231B2, “Compositions of bioactive fulvate fractions and uses thereof” (OMNI BIOCEUTICAL INNOVATIONS, INC., priority 2016, dated 2022).
Where two headings read alike, the source gives them in different places.

Tested on: chronic wounds
Set-up: key: N.S. = not statistically significant

B1: TGF-β2: transforming growth factor-β2 (protein, UniProt P61812 303-414, looked up)
Transforming growth factor …: ALDAAYCFRNVQDNCCLRPLYIDFKRDLGWKWIHEPKGYNANFCAGACPYLWSSDTQHSRVLSLYNTINPEASASPCCVSQDLEPLTILYYIGKTPKIEQLSNMIVKSCKCS
modifications: Transforming growth factor beta-2
Results (venous (36), 2.5 μg/cm^2 three times per week, Robson et al.): N.S.

B2: PDGF-BB: platelet-derived growth factor BB (protein, UniProt P01127 82-190, looked up)
Platelet-derived growth …: SLGSLTIAEPAMIAECKTRTEVFEISRRLIDRTNANFLVWPPCVEVQRCSGCCNNRNVQCRPTQVQLRPVQVRKIEIVRKKPIFKKATVTLEDHLACKCETVAAARPVT
modifications: homodimer
Results (pressure (20), 1, 10, and 100 μg/mL daily, Robson et al.): N.S. | Results (pressure (45), 1 and 3 μg/mL daily, Mustoe et al.): N.S.
